Experimental findings from paper doi:10.1101/2024.10.23.619877 are described below.

For the test, the target named is 20S proteasome (human housekeeping 20S core) (human) (UniProt P60900). Briefly: AFM imaging with morphometric analysis of single particles.
Chain of UniProt P60900 (P60900 whole entry, looked up): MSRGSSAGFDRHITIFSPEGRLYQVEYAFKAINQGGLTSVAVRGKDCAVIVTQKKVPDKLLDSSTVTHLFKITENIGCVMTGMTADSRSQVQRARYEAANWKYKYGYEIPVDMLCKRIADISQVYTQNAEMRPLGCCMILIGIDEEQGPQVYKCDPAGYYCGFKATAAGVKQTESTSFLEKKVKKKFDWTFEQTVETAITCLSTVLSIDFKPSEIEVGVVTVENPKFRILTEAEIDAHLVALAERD

The substance 19S regulatory particle (complex) returned a percent of particles that are 26S proteasomes (with 2 µM Aβ42 oligomers) of 52.9% and a percent of particles that are 26S proteasomes (without Aβ) of 75.8%.
